Reference: paper PMC5256927, “Proteolysis-Dependent Remodeling of the Tubulin Homolog FtsZ at the Division Septum in Escherichia coli” (PLoS ONE, 2017)
Blank lines part the entries; values can stand above or below the molecule they belong to.

Columns and labels:
Gfp-ZC67 (E. coli) = Gfp-ZC67 (E. coli) (UniProt P0A9A6)
[1] = target: Gfp-ZC67(R379E) (E. coli) (UniProt P0A9A6)
[2] = target: the molecule itself; experiment: co-sedimentation; polymers collected by ultracentrifugation (129,000xg, 30 min, 23°C) after 3 min with GTP (2 mM) and a regenerating system in 50 mM MES pH 6.5, 100 mM KCl, 10 mM MgCl2; FtsZ and/or Gfp-FtsZ, 10 μM total; pellets and supernatants by SDS-PAGE
[3] = target: the molecule itself; experiment: cross-linking + other: sucrose gradient fractionation; without GTP; labeled FtsZ 24 μM in 50 mM MES pH 6.5, 100 mM KCl, 10 mM MgCl2; cross-linked with DSP (0.6 mM), 5–20% sucrose gradient with 40% cushion, 100,000xg, 180 min, 4°C; fractions read by fluorescence

degradation of Gfp-ZC67 (3 μM) by ClpXP (1 μM) with ATP (5 mM): loss of Gfp fluorescence after 60 min (% of the initial fluorescence) (Gfp-ZC67 (E. coli)): 25
degradation of Gfp-ZC67(R379E) (3 μM) by ClpXP (1 μM) with ATP (5 mM): loss of fluorescence with time, against Gfp-ZC67 (% more slowly than Gfp-ZC67) [1]: 50
Molecule: ClpXP (from UniProt P0A6H1 1-424; P0A6G7 15-207) (complex)

B1: FtsZ (natural protein, E. coli, UniProt P0A9A6 1-383, looked up)
chain: MFEPMELTNDAVIKVIGVGGGGGNAVEHMVRERIEGVEFFAVNTDAQALRKTAVGQTIQIGSGITKGLGAGANPEVGRNAADEDRDALRAALEGADMVFIAAGMGGGTGTGAAPVVAEVAKDLGILTVAVVTKPFNFEGKKRMAFAEQGITELSKHVDSLITIPNDKLLKVLGRGISLLDAFGAANDVLKGAVQGIAELITRPGLMNVDFADVRTVMSEMGYAMMGSGVASGEDRAEEAAEMAISSPLLEDIDLSGARGVLVNITAGFDLRLDEFETVGNTIRAFASDNATVVIGTSLDPDMNDELRVTVVATGIGMDKRPEITLVTNKQVQQPVMDRYQQHGMAPLTQEQKPVAKVVNDNAPQTAKEPDYLDIPAFLRKQAD
notes: FtsZ, E. coli, cell division protein (tubulin homolog); schematic gives polymerization domain 1-316, unstructured linker 317-369, C-terminal region 370-383; plasmid pET-FtsZ; also called native FtsZ; wild type FtsZ; source: E. coli BL21 (λDE3), purified as described [24,25,72,73]
binding result [2]: binds

B2: Alexa Fluor labeled FtsZ (FtsZ-AF488) (natural protein, E. coli, UniProt P0A9A6 1-383, looked up)
chain: MFEPMELTNDAVIKVIGVGGGGGNAVEHMVRERIEGVEFFAVNTDAQALRKTAVGQTIQIGSGITKGLGAGANPEVGRNAADEDRDALRAALEGADMVFIAAGMGGGTGTGAAPVVAEVAKDLGILTVAVVTKPFNFEGKKRMAFAEQGITELSKHVDSLITIPNDKLLKVLGRGISLLDAFGAANDVLKGAVQGIAELITRPGLMNVDFADVRTVMSEMGYAMMGSGVASGEDRAEEAAEMAISSPLLEDIDLSGARGVLVNITAGFDLRLDEFETVGNTIRAFASDNATVVIGTSLDPDMNDELRVTVVATGIGMDKRPEITLVTNKQVQQPVMDRYQQHGMAPLTQEQKPVAKVVNDNAPQTAKEPDYLDIPAFLRKQAD
modifications: Alexa Fluor 488 label (site not stated)
notes: FtsZ, E. coli, as m1, labeled with Alexa Fluor; schematic gives regions 1-316, 317-369, 370-383; also called labeled fluorescent FtsZ; Fluorescence-labeled FtsZ; source: E. coli BL21 (λDE3), purified, labeled with Alexa Fluor 488; fluorescent active subunits obtained by cycles of polymerization and depolymerization
stoichiometry N [3]: 2
